In paper PMC11341715, “Structural insights into Frizzled3 through nanobody modulators” (Nature Communications, 2024):
Values belong to the binder of their own block, whether it stands above or below them.

Assays:
Details in all cases: both partners purified
[1] = molecular target: T1, biotinylated FZD1 cysteine-rich domain (CRD) (Homo sapiens, UniProt Q9UP38, biotin (in vivo biotinylation of the Avi tag)); assay: BLI; BLItz System; initial qualitative test of the 10 biotinylated human FZD CRDs binding to Nb8
T1 construct: human Frizzled-1 (FZD1) cysteine-rich domain; One of 'all 10 human Frizzled CRDs'; also called FZD1 CRD; source: HEK293T constitutively expressing ER-localised biotin ligase, transfected, biotinylated in vivo; not shown: Avi3, C-terminal, kept

[2] = molecular target: T2, biotinylated FZD9 cysteine-rich domain (CRD) (Homo sapiens, UniProt O00144, biotin (in vivo biotinylation of the Avi tag)); assay: as above
T2 construct: human Frizzled-9 (FZD9) cysteine-rich domain; One of 'all 10 human Frizzled CRDs'; also called FZD9 CRD; source: HEK293T constitutively expressing ER-localised biotin ligase, transfected, biotinylated in vivo; not shown: Avi3, C-terminal, kept

[3] = molecular target: T3, biotinylated FZD7 cysteine-rich domain (CRD) (Homo sapiens, UniProt O75084, biotin (in vivo biotinylation of the Avi tag)); assay: as above
T3 construct: human Frizzled-7 (FZD7) cysteine-rich domain; One of 'all 10 human Frizzled CRDs'; also called FZD7 CRD; source: HEK293T constitutively expressing ER-localised biotin ligase, transfected, biotinylated in vivo; not shown: Avi3, C-terminal, kept

[4] = molecular target: T4, biotinylated FZD8 cysteine-rich domain (CRD) (Homo sapiens, UniProt Q9H461, biotin (in vivo biotinylation of the Avi tag)); assay: as above
T4 construct: human Frizzled-8 (FZD8) cysteine-rich domain; One of 'all 10 human Frizzled CRDs'; also called FZD8 CRD; source: HEK293T constitutively expressing ER-localised biotin ligase, transfected, biotinylated in vivo; not shown: Avi3, C-terminal, kept

[5] = molecular target: T5, biotinylated FZD2 cysteine-rich domain (CRD) (Homo sapiens, UniProt Q14332, biotin (in vivo biotinylation of the Avi tag)); assay: as above
T5 construct: human Frizzled-2 (FZD2) cysteine-rich domain; One of 'all 10 human Frizzled CRDs'; also called FZD2 CRD; source: HEK293T constitutively expressing ER-localised biotin ligase, transfected, biotinylated in vivo; not shown: Avi3, C-terminal, kept

[6] = molecular target: T6, biotinylated FZD10 cysteine-rich domain (CRD) (Homo sapiens, UniProt Q9ULW2, biotin (in vivo biotinylation of the Avi tag)); assay: as above
T6 construct: human Frizzled-10 (FZD10) cysteine-rich domain; One of 'all 10 human Frizzled CRDs'; also called FZD10 CRD; source: HEK293T constitutively expressing ER-localised biotin ligase, transfected, biotinylated in vivo; not shown: Avi3, C-terminal, kept

[7] = molecular target: T7, biotinylated FZD5 cysteine-rich domain (CRD) (Homo sapiens, UniProt Q13467, biotin (in vivo biotinylation of the Avi tag)); assay: as above
T7 construct: human Frizzled-5 (FZD5) cysteine-rich domain; One of 'all 10 human Frizzled CRDs'; also called FZD5 CRD; source: HEK293T constitutively expressing ER-localised biotin ligase, transfected, biotinylated in vivo; not shown: Avi3, C-terminal, kept

[8] = molecular target: T8, biotinylated FZD4 cysteine-rich domain (CRD) (Homo sapiens, UniProt Q9ULV1, biotin (in vivo biotinylation of the Avi tag)); assay: as above
T8 construct: human Frizzled-4 (FZD4) cysteine-rich domain; One of 'all 10 human Frizzled CRDs'; also called FZD4 CRD; source: HEK293T constitutively expressing ER-localised biotin ligase, transfected, biotinylated in vivo; not shown: Avi3, C-terminal, kept

[9] = molecular target: T9, biotinylated FZD3 cysteine-rich domain (CRD) (human, UniProt Q9NPG1, biotin (in vivo biotinylation of the Avi tag)); assay: BLI; Octet Red 96e; biotinylated FZD3 or FZD6 CRD immobilised, Nb8 or Wnt5a in solution; 10 mM HEPES pH 7.5, 150 mM NaCl, 0.02% Tween 20, 0.005% GDN; 1:1 binding model
T9 construct: human Frizzled-3 (FZD3), UniProt Q9NPG1, cysteine-rich domain; residues 26-138 are stated for the FZD3 CRD production construct, not expressly for the Avi-tagged one; The limits 26-138 are told for the Twin-Strep construct; also called FZD3 CRD; Frizzled3 CRD; source: HEK293T constitutively expressing ER-localised biotin ligase, transfected, biotinylated in vivo; not shown: Avi3, C-terminal, kept

[10] = molecular target: T10, biotinylated FZD6 (C-terminally truncated transmembrane construct, in detergent) (Homo sapiens, UniProt O60353, biotin (in vivo biotinylation of the Avi tag)); assay: BLI; Octet Red 96e; biotinylated multidomain FZD3 or FZD6 in detergent immobilised, nanobody or DEP in solution; 10 mM HEPES pH 7.5, 150 mM NaCl, 0.02% Tween 20, 0.005% GDN; 1:1 binding model
T10 construct: Frizzled-6 (FZD6), C-terminally truncated transmembrane construct; the methods say C-terminal truncated, without limits; also called full length FZD6; source: HEK293T with biotin ligase, transfected, biotinylated in vivo, in detergent; not shown: Avi3, C-terminal, kept

[11] = molecular target: T11, biotinylated multidomain FZD3 (C-terminally truncated, in detergent) (human, UniProt Q9NPG1, biotin (in vivo biotinylation of the Avi tag)); assay: as above
T11 construct: human Frizzled-3 (FZD3), UniProt Q9NPG1; C-terminally truncated construct (CRD, linker and transmembrane domain); residues 26-517 are stated for the multidomain production construct, not expressly for the Avi-tagged one; The results call it 'full-length FZD3'; the methods say the biotinylated transmembrane constructs were C-terminally truncated; Functional assays in cells used wild type FZD3 …

T4 sequence (Q9H461 whole entry, looked up, the tested form may be a part): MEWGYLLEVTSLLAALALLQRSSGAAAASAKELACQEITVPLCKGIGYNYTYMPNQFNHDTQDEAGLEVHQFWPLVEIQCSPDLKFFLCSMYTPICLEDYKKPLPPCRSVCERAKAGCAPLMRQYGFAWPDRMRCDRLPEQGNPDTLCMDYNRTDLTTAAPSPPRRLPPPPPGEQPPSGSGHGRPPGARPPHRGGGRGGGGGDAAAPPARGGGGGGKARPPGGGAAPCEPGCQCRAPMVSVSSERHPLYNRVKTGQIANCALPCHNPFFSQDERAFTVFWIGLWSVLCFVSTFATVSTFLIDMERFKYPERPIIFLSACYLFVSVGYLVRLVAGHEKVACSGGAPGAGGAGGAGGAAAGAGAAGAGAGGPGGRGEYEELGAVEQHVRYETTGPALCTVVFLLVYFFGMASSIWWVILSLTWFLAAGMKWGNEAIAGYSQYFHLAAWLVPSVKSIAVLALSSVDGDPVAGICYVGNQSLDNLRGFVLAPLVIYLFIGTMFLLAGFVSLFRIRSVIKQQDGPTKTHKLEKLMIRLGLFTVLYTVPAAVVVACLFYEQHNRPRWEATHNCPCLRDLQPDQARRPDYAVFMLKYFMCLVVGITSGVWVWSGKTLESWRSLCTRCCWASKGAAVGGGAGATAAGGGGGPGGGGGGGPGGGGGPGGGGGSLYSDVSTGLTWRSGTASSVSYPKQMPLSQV
T5 sequence (Q14332 whole entry, looked up, the tested form may be a part): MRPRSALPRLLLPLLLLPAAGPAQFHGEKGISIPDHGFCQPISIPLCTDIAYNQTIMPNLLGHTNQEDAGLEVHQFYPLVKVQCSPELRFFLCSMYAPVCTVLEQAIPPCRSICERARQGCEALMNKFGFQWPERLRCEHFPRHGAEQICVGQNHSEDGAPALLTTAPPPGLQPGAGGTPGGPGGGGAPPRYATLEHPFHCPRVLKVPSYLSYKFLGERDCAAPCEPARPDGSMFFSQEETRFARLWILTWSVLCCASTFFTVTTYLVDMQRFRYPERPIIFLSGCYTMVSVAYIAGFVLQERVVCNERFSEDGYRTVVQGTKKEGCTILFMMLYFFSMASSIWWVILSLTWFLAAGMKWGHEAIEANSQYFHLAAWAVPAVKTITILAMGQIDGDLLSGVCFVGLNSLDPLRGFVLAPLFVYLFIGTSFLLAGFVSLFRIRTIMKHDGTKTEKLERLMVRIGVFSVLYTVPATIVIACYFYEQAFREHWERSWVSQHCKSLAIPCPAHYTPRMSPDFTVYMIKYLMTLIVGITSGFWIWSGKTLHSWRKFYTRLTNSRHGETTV
T7 sequence (Q13467 whole entry, looked up, the tested form may be a part): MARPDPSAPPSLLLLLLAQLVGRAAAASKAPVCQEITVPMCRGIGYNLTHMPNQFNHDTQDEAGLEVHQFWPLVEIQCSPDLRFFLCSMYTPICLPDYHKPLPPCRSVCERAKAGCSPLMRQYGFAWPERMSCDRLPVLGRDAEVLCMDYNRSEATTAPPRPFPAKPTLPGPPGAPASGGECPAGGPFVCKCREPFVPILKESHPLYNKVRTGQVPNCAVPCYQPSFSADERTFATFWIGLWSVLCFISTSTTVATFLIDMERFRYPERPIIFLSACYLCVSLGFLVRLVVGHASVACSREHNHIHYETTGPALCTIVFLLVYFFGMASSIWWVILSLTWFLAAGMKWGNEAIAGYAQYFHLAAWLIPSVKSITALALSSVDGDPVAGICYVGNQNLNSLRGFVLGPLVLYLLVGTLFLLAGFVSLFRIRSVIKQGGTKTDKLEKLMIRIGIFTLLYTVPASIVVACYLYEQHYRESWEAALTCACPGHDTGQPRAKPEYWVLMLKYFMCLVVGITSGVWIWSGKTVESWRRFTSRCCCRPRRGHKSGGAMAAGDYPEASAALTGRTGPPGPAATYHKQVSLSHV
T2 sequence (O00144 whole entry, looked up, the tested form may be a part): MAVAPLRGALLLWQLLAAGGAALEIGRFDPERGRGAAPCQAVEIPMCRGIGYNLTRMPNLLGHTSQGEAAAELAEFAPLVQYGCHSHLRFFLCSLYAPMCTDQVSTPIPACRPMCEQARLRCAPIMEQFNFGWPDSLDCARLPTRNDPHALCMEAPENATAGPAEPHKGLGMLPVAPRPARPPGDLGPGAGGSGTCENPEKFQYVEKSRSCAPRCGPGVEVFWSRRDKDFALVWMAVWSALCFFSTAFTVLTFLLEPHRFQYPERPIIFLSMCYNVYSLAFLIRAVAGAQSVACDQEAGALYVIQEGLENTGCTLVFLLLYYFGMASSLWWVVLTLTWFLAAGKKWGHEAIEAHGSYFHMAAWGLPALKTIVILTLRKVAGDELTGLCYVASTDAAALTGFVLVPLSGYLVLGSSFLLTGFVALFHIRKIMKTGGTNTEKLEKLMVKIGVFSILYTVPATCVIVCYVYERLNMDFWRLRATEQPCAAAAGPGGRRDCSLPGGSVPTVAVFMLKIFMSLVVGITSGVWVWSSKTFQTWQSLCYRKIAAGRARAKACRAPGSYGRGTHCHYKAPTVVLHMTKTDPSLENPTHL
T10 sequence (O60353 19-706): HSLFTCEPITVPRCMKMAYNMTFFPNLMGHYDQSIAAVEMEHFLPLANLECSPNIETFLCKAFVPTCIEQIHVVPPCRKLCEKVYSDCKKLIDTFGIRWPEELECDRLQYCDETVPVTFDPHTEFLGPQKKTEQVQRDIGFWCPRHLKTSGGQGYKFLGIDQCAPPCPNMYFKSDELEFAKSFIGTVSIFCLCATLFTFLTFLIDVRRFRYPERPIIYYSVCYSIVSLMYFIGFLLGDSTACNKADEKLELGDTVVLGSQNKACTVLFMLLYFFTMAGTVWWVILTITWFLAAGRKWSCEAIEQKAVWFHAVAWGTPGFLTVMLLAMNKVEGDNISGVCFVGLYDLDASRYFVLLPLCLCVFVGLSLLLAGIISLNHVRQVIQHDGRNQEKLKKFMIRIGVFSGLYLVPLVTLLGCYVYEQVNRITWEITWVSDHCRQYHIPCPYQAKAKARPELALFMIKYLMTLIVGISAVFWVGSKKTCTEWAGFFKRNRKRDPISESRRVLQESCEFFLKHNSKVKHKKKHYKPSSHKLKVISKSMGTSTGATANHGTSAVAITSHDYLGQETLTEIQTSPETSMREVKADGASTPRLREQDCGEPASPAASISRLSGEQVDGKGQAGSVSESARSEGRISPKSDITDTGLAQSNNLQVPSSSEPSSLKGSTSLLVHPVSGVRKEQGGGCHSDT
T1 sequence (Q9UP38 whole entry, looked up, the tested form may be a part): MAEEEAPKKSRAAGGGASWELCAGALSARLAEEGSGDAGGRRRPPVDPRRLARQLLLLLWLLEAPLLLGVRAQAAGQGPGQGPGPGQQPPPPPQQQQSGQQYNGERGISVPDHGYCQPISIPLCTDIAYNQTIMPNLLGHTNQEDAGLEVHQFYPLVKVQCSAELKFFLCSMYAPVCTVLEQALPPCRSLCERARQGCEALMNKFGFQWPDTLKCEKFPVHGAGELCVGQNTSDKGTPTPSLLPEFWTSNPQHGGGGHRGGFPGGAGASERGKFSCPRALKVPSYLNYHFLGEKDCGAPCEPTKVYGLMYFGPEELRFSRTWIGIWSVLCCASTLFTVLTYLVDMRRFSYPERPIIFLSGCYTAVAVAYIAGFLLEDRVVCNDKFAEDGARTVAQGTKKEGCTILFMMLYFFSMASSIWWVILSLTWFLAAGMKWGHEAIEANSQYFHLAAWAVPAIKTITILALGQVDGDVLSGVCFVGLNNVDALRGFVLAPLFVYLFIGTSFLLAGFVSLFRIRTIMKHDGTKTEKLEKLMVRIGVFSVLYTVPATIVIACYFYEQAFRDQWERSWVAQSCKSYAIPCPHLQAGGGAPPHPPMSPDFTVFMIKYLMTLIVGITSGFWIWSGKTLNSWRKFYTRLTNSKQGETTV
T6 sequence (Q9ULW2 whole entry, looked up, the tested form may be a part): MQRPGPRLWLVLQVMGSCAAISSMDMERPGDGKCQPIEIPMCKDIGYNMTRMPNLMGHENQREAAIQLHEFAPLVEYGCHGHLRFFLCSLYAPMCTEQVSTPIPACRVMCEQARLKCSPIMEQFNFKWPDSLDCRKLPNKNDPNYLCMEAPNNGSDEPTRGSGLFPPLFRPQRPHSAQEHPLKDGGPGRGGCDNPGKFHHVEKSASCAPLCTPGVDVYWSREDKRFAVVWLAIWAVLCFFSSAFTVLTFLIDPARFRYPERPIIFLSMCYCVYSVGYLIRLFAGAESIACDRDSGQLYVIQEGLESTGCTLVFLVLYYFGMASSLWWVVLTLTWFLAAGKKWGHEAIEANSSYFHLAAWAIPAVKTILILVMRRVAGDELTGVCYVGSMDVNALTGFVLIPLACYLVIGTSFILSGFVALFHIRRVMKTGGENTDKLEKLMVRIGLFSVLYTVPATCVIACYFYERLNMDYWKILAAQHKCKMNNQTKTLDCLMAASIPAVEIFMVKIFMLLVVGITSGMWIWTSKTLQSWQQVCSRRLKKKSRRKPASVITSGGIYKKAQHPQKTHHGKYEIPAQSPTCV
T8 sequence (Q9ULV1 whole entry, looked up, the tested form may be a part): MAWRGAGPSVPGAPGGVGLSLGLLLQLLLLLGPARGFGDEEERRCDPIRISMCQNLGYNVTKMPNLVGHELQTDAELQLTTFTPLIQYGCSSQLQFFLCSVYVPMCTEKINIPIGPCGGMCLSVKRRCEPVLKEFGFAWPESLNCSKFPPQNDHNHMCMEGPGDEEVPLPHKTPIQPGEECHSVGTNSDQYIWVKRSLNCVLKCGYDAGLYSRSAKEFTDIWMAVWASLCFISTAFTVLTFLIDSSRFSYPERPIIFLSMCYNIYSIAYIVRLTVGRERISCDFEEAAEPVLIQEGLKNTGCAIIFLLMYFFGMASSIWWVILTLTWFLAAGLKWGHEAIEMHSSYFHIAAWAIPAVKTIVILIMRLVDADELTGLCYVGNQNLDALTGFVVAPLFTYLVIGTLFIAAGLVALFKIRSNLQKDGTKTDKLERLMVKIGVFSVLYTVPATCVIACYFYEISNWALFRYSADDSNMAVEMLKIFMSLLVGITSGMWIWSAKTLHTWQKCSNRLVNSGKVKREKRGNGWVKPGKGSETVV

binding result [1]: no binding
binding result [2]: no binding
binding result [3]: no binding
binding result [4]: no binding
binding result [5]: no binding
binding result [6]: no binding
binding result [7]: no binding
binding result [8]: no binding
Kd [9]: 19.2 ± 1.2 nM
B1: Nb8 (VHH)
VHH: QVQLVESGGGLVQAGGSLRLSCAASGSISSINAMGWYRQAPGKQRELVAAITSGGSTNYADSVKGRFTISRDNAKNTVYLQMNSLKPGDTAVYYCNLLYYIDYVEYDYWGQGTQVTVSS
notes: also in PDB 8Q7O; residues 1-119 are named for the Nb8 module of the surrogate; Untagged in the crystallisation sample; also called nanobody 8; family 2; source: co-expressed untagged with FZD3 CRD in HEK293S GnTI- cells (for crystallisation)

Kd [10]: 410 ± 41 nM
Kd [11]: 32 ± 2.8 nM
B2: Nb9 (VHH)
VHH: QVQLVESGGGLVQAGGSLRLSCTASGRIFNLDVMGWYRQAPGKRRELVADITSGGKINYADSVKGRFTISRDNTKDTVYLQMNSLKPEDTAVYYCNAEVEWLDMDYWGKGTQVTVSS
notes: most of the chain also in PDB 8QW4 (as the megabody); also called nanobody 9; family 3

binding result [11]: binds
B3: Nb1 (VHH)
VHH: QVQLVESGGGLVQAGGSLRLSCAASGNIFSINAMGWYRQAAGKQRELVAAITSGGSTNYADSVKGRFTISRDNAKNTVYLQMNSLKPEDTAVYYCNADEWALGEHWGQGTQVTVSS
notes: also called nanobody 1; family 1 (Nb1, 3-6)
